Source: EP4499697A1 (dated 2025)

Columns and labels:
[1] = target: T1, human FRα on cells (human, UniProt P15328 25-234); test: cell-based or functional assay
[2] = target: T1, human FRα on cells; test: flow cytometry on IGROV-1 cells (endogenous FRα), apparent Kd

T1 sequence (P15328 25-234): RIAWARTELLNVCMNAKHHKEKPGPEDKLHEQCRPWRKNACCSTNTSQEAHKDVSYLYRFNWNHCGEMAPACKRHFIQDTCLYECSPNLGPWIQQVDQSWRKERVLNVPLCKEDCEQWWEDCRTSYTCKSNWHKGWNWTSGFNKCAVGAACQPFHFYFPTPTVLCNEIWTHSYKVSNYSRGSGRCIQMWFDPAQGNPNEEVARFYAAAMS

B1: mirvetuximab (v17716) (antibody, V domains shown)
VH: QVQLVQSGAEVVKPGASVKISCKASGYTFTGYFMNWVKQSPGQSLEWIGRIHPYDGDTFYNQKFQGKATLTVDKSSNTAHMELLSLTSEDFAVYYCTRYDGSRAMDYWGQGTTVTVSS
VL: DIVLTQSPLSLAVSLGQPAIISCKASQSVSFAGTSLMHWYHQKPGQQPRLLIYRASNLEAGVPDRFSGSGSKTDFTLTISPVEAEDAATYYCQQSREYPYTFGGGTKLEIK
B1 was tested, and the “internalized fluorescence relative to v30384, 25 nM, 5-hour incubation, IGROV-1 cells” value [1] was 0.5 fold and the Kd [2] was 0.69 nM.
